Laboratory results taken from the DeepSol protein solubility set.

Experiment: soluble on expression in E. coli; label from the status in PepcDB or PDB records

| Sequence | soluble on expression in E. coli |
| --- | --- |
| MTTINPTNYTLLKKQAASLIEDEHHMIAILSNMSALLNDNLDQINWVGFYLLEQNELILGPFQGHPACVHIPIGKGVCGTAVSERRTQIVADVHQFEGHIACDANSKSEIVVPIFKDDKIIGVLDIDAPITDRFDDNDKEHLEAIVKIIEKQLA | not soluble |
| MSLKITGLRTRRIHIPFDKPIGTSIHRIEGVSGLLVWLDTDEGITGESYLWAIGRHRVPVLESIVRMLGERAIGKDPRDTTARFDEMWTEINFLGHKGVSLFGIAAIDWACWDILGQSLGASVSRLLGRRRDRVTAYASGGLWASMTIPELEAQARDFVAQGFTAVKMRIGKPDIGEDIERVAAVRSAIGSRIKLMADANQGLSVNHAIRLGRKLETFDLVWFEEPVQAYDLEGSARVAAEIDTPIASGETEYGRYGFRDMLERKSADVLMPDLERVGGVTEWVRVAHMAAAYDVPVSPHIFSEHSLQLCGAISNVNYAEHMPWFAELFQERLEMVDGDLLIPDRPGMGFRFDPDAVERYADEGHHHHHH | soluble |
| MSNSKPVNYLTLKCLLKNMDSGMRLQLFVMFPSIQYLEKLFPLHVKYLTIKSDHITVNRTTFQLKICNKYNNFHGGYKFDFDQYGRLDRGEIEQDPDESIIDVRDGFLSKKGIPECEMETARLVHNLTLQKSQRYSTRIWESHGTILKKLSYYVPENNFIRLKIGKRVEVLEYQRKIHEAMKYLLGRLFGGRSLEANQFSIGCDTVLRVPSTLKFRIENLYTPSFKIANTLDVVNQIVDNSSLPLSSLKYSFENHIYHHPHSLVRTVKMLKLEVEMVPDYISGIVSNLQMVDEKRAHIVFLGDCTSSNFLKILAHWILEFHRDIGTYHTYQLSEAVVDEVMIFVRTNYGVMIEAGLPQTTDQITLNINDTSSLVISKFQQKEKWIFGLKMEH | not soluble |
| MGSDKIHHHHHHMEKRLDYITDLMALGPTANARTIQRRQTAHRLAIAEAWQVKPGEKILEIGCGQGDLSAVLADQVGSSGHVTGIDIASPDYGAPLTLGQAWNHLLAGPLGDRLTVHFNTNLSDDLGPIADQHFDRVVLAHSLWYFASANALALLFKNMAAVCDHVDVAEWSMQPTALDQIGHLQAAMIQGLLYAIAPSDVANIRTLITPDTLAQIAHDNTWTYTAGTIVEDPTLDDAHWEIATTNALLTELKLSTDLRDRVKPLLEAMSHNGTASLATFTGRITF | not soluble |
| MTDKVIATHNGNFHADDVFSIAALKNIFPSFKLIRTRDLEVIGKADIVIDVGGEYDADAGRFDHHQRGGAGERENGIPYSSFGLIWQKYGLAICQGNQEVANSVDAGLVSTIDAIDCGHVEGVAQGISLSQTISMFNPTWQEDSHFDTCFDEAVDFASRVLTRFIASASGGINAKDIVAKAIDNAEDSRVIVLEKYTPWKRTVHALSEEALYMVYPSPSGQWRIQTVPVEPGSFEDRKPLPKQWAGLSDDALKEVTGIDDAMFCHNGLFIAGAESFESTMKMASIALQALEHHHHHH | soluble |
| MNNQTILIIGAAGNNGMATIESLVSKQPKDTIVAAVRSTDKATLLKKKFPSIKTVIIDLDKPETLTAAYEGVTKVFMIPGNVEEREQHAKNAIDAAVQAGTVKQFLFYSVVGAEYEAILFAQQFRAGEKYLEQSGLNWTHLRTIFFQDNFFGWADGVKQGGLYFGIREGSFAPLNVADIGEMAANILTTSGHEHKAYNITGSELLSGEEMAKVFTDVTGKTVAYISPTKQQTLDSLLSTGWPQWQAEGMLELFEVFATNQAAVVSPDGEQLLGRPLTTLKDFIASNKAAFV | not soluble |
| MGSDKIHHHHHHMFEKRVLKIKGGSNFRDLGGYQTHDGKKILWGRLFRGSALNNFTNHDLRVLKRRHINTIIDFRSLDESLNDPDIYPETSNDIRLTVLDQDTTYSTITPEEFHRLSHSNGFAYKQMMNTYRRLITDEFSQQAYRQFFDYLLNQDDGAILFHCTKGKDRTGIATALFFLAVGIDKKTIFQDYLLTDTYNHEQTEVELERMVERGEDDDDIDNVKHFLLTDRNYLENAFAAMDEIAGSPQAYLKKYLGLSDEKIQILRNKYLS | not soluble |
| MPEITRRRALTAAAAVAATASAAVTLAAPAASAAGHHEPAAPESFDEVYKGRRIQGRPARGAAHHHEHGGGYEVFVDGVQLHVMRNADGSWISVVSHFDPVPTPRAAARAAVDELQGAPLLPFPANLEHHHHHH | soluble |
| MDSTKVTLTVRGSTAFGEVIAVVGSCETLGSWCQQKAVTLQPAEEDGTLWRTTIHVPRGAETKYRYFKAFILESKNAGGPCQVIVNRWETHQLPRSLSPSEPELVVDDGHFGVHDGAECVDSGWLTCQTEIRLRLHYSVKPPVSITKKKFKTSRIRLKPMLEGVEEEEDED | soluble |
| MAGFAVNLKVVLNSDAVFGTACKRGGGAPETCLLEDMGLEREDIEPFGYEKDKDREILVWHTKTSTPNIVKSNKNSTKKAPPPDTFGYFVEA | not soluble |
| MRNVDFSPLYRNAIGFDRLLNLMEANTAKNTSGGYPPYNIEQKDEHNYRITMAVAGFSEDQLDLTQNENMLIVKGERKAEEGKNYVYQGIAERDFERKFQLADYVKVTGASMENGLLHIDLVREIPEAMQPRKIAIGGNNLLESN | not soluble |
| MNGYQITFFTQQDRHHAGKPLADWLMHLAAEMGLRGATLIPGSEGMGHDKRFHSVHFFELSDQLLEVVMVVSEEEADQLFARLRAEGVRLFYVKVAAEFGIMD | not soluble |
| MGSDKIHHHHHHMNCKELQLSPELTQALGEGDVFSRVMALGGEVFRDVPGRKTVRVQLAGQPYFIKQHFGVGWGEIFKNLLAFKVPIVSANTEKQAIEKLGEIGIATTPLAGFGSRGCSPASRQSFLITHDLGDILSLETLADQWMQSPPEPRFKRRLLMEVATLAARLHDSGLNHRDFYICHICLDLPRLRHGDIHLYLIDLHRVGIRETIRPQDRMKDIAALYFSAMNAGLVTRDYLRFLRRYRGKPIRQVMREERDFWQQVQARAIKLYIKLHKVEPGLHQIGGMIG | not soluble |
| MPCRLRKITVYETKSRFYIIGCDSTGSRYNVLKIDRIDPKALITGEPEYDYTREEILELLATISDGSSVVYRSSSKKGTKSGLIERATNAFGILGCVRFVEGYYLIIITRAHAVATLGYHPVYKIVEVAMIPIAMDGVSTSSEEQKYVKLFQSVDLSTDFYFSYSYDMSRTFQENSLRSDWNNHGQRRLEADERFVWNSFLLEPLRKNLISERWFVEIVHGYVRQEYIFLPIGRISLTIIGRRSTKYAGTRFLKRGANPTGNVANYVETEQIVWDMASSGNVADGRFSSFVQMRGSVPMRWSQDPSTRGVVGKPLILIDNHEPHAQTAASHFRDVRNKYGNPIVIMNLIKRNEKRRHEGVLHTQFLKNIEYLNQFLPNEEKLCYISFDVARCNKAANSMPSINVLNVMEDLSMKSILKNGWFQSFPLSEALKIRPREAFATLDAHHSKDGRFMIQHGICRTNCVDCLDRTNVAQFVIAKVALGCQLCAMGILDEPNLTLQSEVCRLLEDMFDEHGDTMALQYAGSQLVHSIKTYKKTAAFQERRRDVFQTLSRYYSNTFNDWDKQMAINLFLGVFRPRITTMKNLWDLTSDYNLHFPYSLKINTDYCAWTLSEKELEDLVFLDYDESENSDGYVEIRSIDVDGRRGSEGSEYRTLLFSSHEDFRDYHRTYEFTSLDDRIGRLFSIENRAIQVDGINEEPTTHAQFLKLWKTTETKEKDQKKPNKKDKEEKESDDEDDDEEISTQWSDVVEAQQEWYDLVNAPGNVTTTLQKSPTKRESTPPRNTSRAKRSLLSTGLQFAKDIYHLDHLKTQPEERRYYEKYAITAFKCNVRDWEKVKPTLLSEFKITSEVEPRRPTFFTTDDCYRTESPEVSGNSARFYIKSSHPLTTECSAQDYGFFSKYMQAT | not soluble |
| MSLDNKGDIWYDLISAVHKSIRGSDPDAALYWAARMISAGCDPLYIARRLLAIASEDVGNADPRGMQVALAAWDCFTRVGPAEGERAIAQAIVYLACAPKSNAVYTAWKQALSDAHNLPEFEVPPHLRNAPTRLMKDLGYGEEYRYAHDEPGAYAAGECYFPPEMSGTRYYQPTPRGLETKIAEKLAYLADLNAKSPQKEGHHHHHH | soluble |
| MGSDKIHHHHHHMKDGQMLTEWPSHLPWLNQSQNDFTFPSDTYLLLYFWSMSCPNCHQFTDKVLQDIKDMNVKVIGVHVPYIEEEKSMEVVLTYALDRGLAIPIVLDQNYEIVTTCHVQGIPSFCLLSQYGQIITKTMGDVSWDKMLKKIAGL | not soluble |
| MGSDKIHHHHHHLDGDTQISIEALTSLSQITAEEWDACACPEDGRPLDPFTTYRFLDALEQSGSVGPGSGWQPRYLVARMDDQVIACAPMYAKGHSQGEYIFDHNWAHAYENAGGAYYPKLQIAAPFTPATGRRFLTRPGHDATGISALIQGAVQIAADNDLSSLHVTFCTEDEAIAGERIGLMRRWSQQFHWVNDGYADFDGFLASLSSRKRKNIRKERARAQAFGGEIVSLTGAQIKAEHWDAFWHFYQDTGARKWGTPYLTRAFFDIVHETLTDDMLLCLAIREGQPVAGALNFIGADTLYGRYWGCVEDHPCLHFELCYYQAIDYAIANGLSRVEAGAQGAHKLARGYLPVATHSLHWVRDAGFAEAIGRYLEAEREAVDEEIEVLTGYGPFKRA | not soluble |
| MSYMLPHLHNGWQVDQAILSEEDRVVVIRFGHDWDPTCMKMDEVLYSIAEKVKNFAVIYLVDITEVPDFNKMYELYDPCTVMFFFRNKHIMIDLGTGNNNKINWAMEDKQEMVDIIETVYRGARKGRGLVVSPKDYSTKYRY | soluble |
| SLLPDIPEPLKNGTGAIDNNGVIYVGLGTAGTSWYKIDLKKQHKDWERIKSFPGGAREQSVSVFLNDELYVFGGVGKKNSESPLQVYSDVYKYSPVKNTWQKVDTISPVGLTGHTGVKLNETMVLITGGVNEHIFDKYFIDIAAAAADESEKNKVIYNYFNKPAKDYFFNKIVFIYNAKENTWKNAGELPGAGTAGSSSVMGNNFLMLINGELKPGLRTDVIYRAMWDNDKLTWLKNSQLPPSPGEQQQEGLAGAFSGYSHGVLLVGGGANFPGAKQNYTNGKFYSHEGINKKWRDEVYGLINGHWQYMGKMKQPLGYGVSVSYGDEVFLIGGENAKGKPVSSVTSFTMRDGNLLIK | not soluble |
| MEQIERIAQLYPVIMRVMGRIRSLVHDGMDLTYNQYKMLLTIYDKGSCPLNLLARELGIAMSSASEMVERLVNLGIVYRAVDEDNRRQVIIYTTDRGEELIRELRHGIIENYRQLFARLPEGDQERLATAFETIADVLGKLE | not soluble |
| MSDIERRHTIMAKGSVRKKGKKWYYRFYVEDASGNLVQKEYAGTESKSETEKLLRQAMDDYESKKFIAKSENITIGELLDIWAEEELKTGMLSNGTVQNYLGAITNIKKHPISERKLKNVTSEHLQAFFDLLSFGGTYPDGSERKGYSKDYIRSFSAVLQQSFRFAVSPKQYITFNPMQYIKLKYQTDEVDLFSDDDMDGDIQPIPREDYERLIEFLQNYNPPAILPIQIAYYAGLRIGEACGLAWQDVNLEEQCLTIRRSIRYDGSRHKNIIGPTKRKKVRIVDFGDTLAEILRNARKEQLKNRMQYGELYHKNYYREVKDKNRVYYEFYHLDGTENVPEDYKEISFVCLRPDGSLELPSTLGIVCRKIAQKLDGFEGFHFHQLRHTYTSNLLANGAAPKDVQELLGHSDVSTTMNVYAHSTRKAKRESARLLDKVAGND | not soluble |
| MGSDKIHHHHHHMEHNRVLRLEHGINFRELGGYENTAGQTIKWQKLLRCGGMSLLTNRDLTYLDNYGLRYDIDLRQANEAEMSPDRYPKNTKYINTSVYPFTDNRRFDRRLKRLIKRMVVDDSFNAQTYAQMITDSHAVKVWQNLFATLLANDQPDQSVLFHCAAGKDRTGVAGALIMTALDVPRETIMQDYLLTNAVFMAADSMDTATIITKANAGDLASQFNVAMAVEADNMKMVFRVFDDLYGNGIGYLREVLGLSVADINNLRQLYLND | not soluble |
